Measured values as given in article PMC5788269, “Architecture of eukaryotic mRNA 3′-end processing machinery” (Science (New York, N.y.), 2017).

T1: Cft1 (recombinant, polymerase module) (yeast, UniProt Q06632 1-1357)
T1 construct: Cft1, yeast; ordered in the cryo-EM map: residues 1 to 1357 (several loops not visible); source: overexpressed in insect cells, purified as part of the polymerase module
T1 sequence: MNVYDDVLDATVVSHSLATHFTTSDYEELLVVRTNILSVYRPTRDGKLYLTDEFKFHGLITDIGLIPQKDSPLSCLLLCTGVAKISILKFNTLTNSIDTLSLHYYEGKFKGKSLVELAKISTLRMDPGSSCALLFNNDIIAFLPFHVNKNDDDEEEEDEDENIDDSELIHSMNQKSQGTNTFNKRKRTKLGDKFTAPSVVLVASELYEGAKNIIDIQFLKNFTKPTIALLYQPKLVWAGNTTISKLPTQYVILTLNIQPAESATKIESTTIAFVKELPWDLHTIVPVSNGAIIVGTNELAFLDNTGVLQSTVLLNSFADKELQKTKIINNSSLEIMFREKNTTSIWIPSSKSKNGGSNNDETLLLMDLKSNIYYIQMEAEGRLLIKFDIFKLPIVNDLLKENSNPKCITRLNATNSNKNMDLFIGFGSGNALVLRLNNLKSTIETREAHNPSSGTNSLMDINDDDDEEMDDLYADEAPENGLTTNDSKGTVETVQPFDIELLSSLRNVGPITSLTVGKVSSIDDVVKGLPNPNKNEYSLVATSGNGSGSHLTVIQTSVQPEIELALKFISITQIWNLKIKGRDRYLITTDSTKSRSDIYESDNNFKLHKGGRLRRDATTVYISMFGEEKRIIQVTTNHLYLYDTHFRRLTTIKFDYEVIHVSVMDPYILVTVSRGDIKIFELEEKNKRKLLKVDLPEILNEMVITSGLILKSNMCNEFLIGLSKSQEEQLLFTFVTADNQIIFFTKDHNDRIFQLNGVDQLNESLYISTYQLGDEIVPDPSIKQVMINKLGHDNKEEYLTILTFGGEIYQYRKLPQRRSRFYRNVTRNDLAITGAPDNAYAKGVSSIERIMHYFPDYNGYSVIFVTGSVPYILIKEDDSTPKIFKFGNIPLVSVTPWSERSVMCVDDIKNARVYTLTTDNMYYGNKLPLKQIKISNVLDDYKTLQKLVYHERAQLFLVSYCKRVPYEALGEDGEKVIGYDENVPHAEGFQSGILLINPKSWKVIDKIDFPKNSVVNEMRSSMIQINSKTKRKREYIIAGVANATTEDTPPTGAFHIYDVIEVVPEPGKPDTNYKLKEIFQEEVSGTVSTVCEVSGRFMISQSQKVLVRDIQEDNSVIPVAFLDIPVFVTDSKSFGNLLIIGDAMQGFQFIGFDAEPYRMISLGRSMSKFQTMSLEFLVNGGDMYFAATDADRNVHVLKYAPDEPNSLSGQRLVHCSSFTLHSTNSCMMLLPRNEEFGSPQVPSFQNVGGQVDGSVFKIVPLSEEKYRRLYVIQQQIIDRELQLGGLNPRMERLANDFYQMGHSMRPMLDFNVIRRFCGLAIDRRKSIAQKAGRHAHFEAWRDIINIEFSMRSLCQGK

B1: Fip1 (recombinant, polymerase module) (natural protein, yeast, UniProt P45976 1-327, looked up)
chain: MSSSEDEDDKFLYGSDSELALPSSKRSRDDEADAGASSNPDIVKRQKFDSPVEETPATARDDRSDEDIYSDSSDDDSDSDLEVIISLGPDPTRLDAKLLDSYSTAATSSSKDVISVATDVSNTITKTSDERLITEGEANQGVTATTVKATESDGNVPKAMTGSIDLDKEGIFDSVGITTIDPEVLKEKPWRQPGANLSDYFNYGFNEFTWMEYLHRQEKLQQDYNPRRILMGLLSLQQQGKLNSANDTDSNLGNIIDNNNNVNNANMSNLNSNMGNSMSGTPNPPAPPMHPSFPPLPMFGSFPPFPMPGMMPPMNQQPNQNQNQNSK
notes: Fip1, yeast; present in the four-subunit complex but not visible in the cryo-EM map; source: overexpressed in insect cells, purified as part of the polymerase module
B2: Pfs2 (recombinant, polymerase module) (natural protein, yeast)
chain: MDGHNQNQYQNQNQIQQSQQPPLKKYVTQRRSVDVSSPYINLYYNRRHGLPNLVVEPETSYTIDIMPPNAYRGRDRVINLPSKFTHLSSNKVKHVIPAIQWTPEGRRLVVATYSGEFSLWNASSFTFETLMQAHDSAVTTMKYSHDSDWMISGDADGMIKIWQPNFSMVKEIDAAHTESIRDMAFSSNDSKFVTCSDDNILKIWNFSNGKQERVLSGHHWDVKSCDWHPEMGLIASASKDNLVKLWDPRSGNCISSILKFKHTVLKTRFQPTKGNLLMAISKDKSCRVFDIRYSMKELMCVRDETDYMTLEWHPINESMFTLACYDGSLKHFDLLQNLNEPILTIPYAHDKCITSLSYNPVGHIFATAAKDRTIRFWTRARPIDPNAYDDPTYNNKKINGWFFGINNDINAVREKSEFGAAPPPPATLEPHALPNMNGFINKKPRQEIPGIDSNIKSSTLPGLSI
notes: Pfs2, yeast; ordered in the cryo-EM map: residues 27 to 411; source: overexpressed in insect cells, purified as part of the polymerase module
B3: Pap1 (recombinant, polymerase module) (enzyme, yeast, UniProt P29468 1-568, looked up)
chain: MSSQKVFGITGPVSTVGATAAENKLNDSLIQELKKEGSFETEQETANRVQVLKILQELAQRFVYEVSKKKNMSDGMARDAGGKIFTYGSYRLGVHGPGSDIDTLVVVPKHVTREDFFTVFDSLLRERKELDEIAPVPDAFVPIIKIKFSGISIDLICARLDQPQVPLSLTLSDKNLLRNLDEKDLRALNGTRVTDEILELVPKPNVFRIALRAIKLWAQRRAVYANIFGFPGGVAWAMLVARICQLYPNACSAVILNRFFIILSEWNWPQPVILKPIEDGPLQVRVWNPKIYAQDRSHRMPVITPAYPSMCATHNITESTKKVILQEFVRGVQITNDIFSNKKSWANLFEKNDFFFRYKFYLEITAYTRGSDEQHLKWSGLVESKVRLLVMKLEVLAGIKIAHPFTKPFESSYCCPTEDDYEMIQDKYGSHKTETALNALKLVTDENKEEESIKDAPKAYLSTMYIGLDFNIENKKEKVDIHIPCTEFVNLCRSFNEDYGDHKVFNLALRFVKGYDLPDEVFDENEKRPSKKSKRKNLDARHETVKRSKSDAASGDNINGTTAAVDVN
notes: Pap1 poly(A) polymerase, yeast; source: overexpressed in insect cells, purified as part of the polymerase module

What was measured:
Details in all cases: both partners purified
[1] = molecular target: B3; assay: cross-linking; cross-linking mass spectrometry of the polymerase module, to determine where Pap1 and Fip1 bind
[2] = molecular target: T1, Cft1 (recombinant, polymerase module); assay: cryo-EM structure; recombinant four-subunit complex (Cft1, Pfs2, Yth1, Fip1) overexpressed in insect cells; overall resolution 3.5 Å
[3] = molecular target: T1, Cft1 (recombinant, polymerase module); assay: cross-linking; cross-linking mass spectrometry of the polymerase module, to determine where Pap1 and Fip1 bind
[4] = molecular target: B2; assay: cryo-EM structure; recombinant four-subunit complex (Cft1, Pfs2, Yth1, Fip1) overexpressed in insect cells; overall resolution 3.5 Å
[5] = molecular target: B1; assay: cross-linking; cross-linking mass spectrometry of the polymerase module, to determine where Pap1 and Fip1 bind

Row | Binder | binding result [1] | binding result [2] | binding result [3] | binding result [4] | binding result [5]
1 | B1 | binds |  |  |  | 
2 | B2 | binds | binds |  |  | 
3 | B3 |  |  | binds |  | 
4 | Yth1 (recombinant, polymerase module) (natural protein, yeast, Yth1, yeast; ordered in the cryo-EM map: residues 1 to 94; zinc fingers 3 to 5 (residues 95 to 208) not visible; source: overexpressed in insect cells, purified as part of the polymerase module) SLIHPDTAKYPFKFEPFLRQEYSFSLDPDRPICEFYNSREGPKSCPRGPLCPKKHVLPIFQNKIVCRHWLRGLCKKNDQCEYLHEYNLRKMPECVFFSKNGYCTQSPDCQYLHIDPASKIPKCENYEMGFCPLGSSCPRRHIKKVFCQRYMTGFCPLGKDECDMEHPQFIIPDEGSKLRIKRDDEINTRKMDEEKERRLNAIINGEV | binds | binds |  | binds | binds
